Laboratory results from patent publication US20240392013A1 (STELEXIS THERAPEUTICS, published 2024).

T1: IL1RAP on HEK-Blue IL1β / HEK-Blue IL33 reporter cells (UniProt Q9NPH3 21-570, limits assumed)
T1 sequence (looked up): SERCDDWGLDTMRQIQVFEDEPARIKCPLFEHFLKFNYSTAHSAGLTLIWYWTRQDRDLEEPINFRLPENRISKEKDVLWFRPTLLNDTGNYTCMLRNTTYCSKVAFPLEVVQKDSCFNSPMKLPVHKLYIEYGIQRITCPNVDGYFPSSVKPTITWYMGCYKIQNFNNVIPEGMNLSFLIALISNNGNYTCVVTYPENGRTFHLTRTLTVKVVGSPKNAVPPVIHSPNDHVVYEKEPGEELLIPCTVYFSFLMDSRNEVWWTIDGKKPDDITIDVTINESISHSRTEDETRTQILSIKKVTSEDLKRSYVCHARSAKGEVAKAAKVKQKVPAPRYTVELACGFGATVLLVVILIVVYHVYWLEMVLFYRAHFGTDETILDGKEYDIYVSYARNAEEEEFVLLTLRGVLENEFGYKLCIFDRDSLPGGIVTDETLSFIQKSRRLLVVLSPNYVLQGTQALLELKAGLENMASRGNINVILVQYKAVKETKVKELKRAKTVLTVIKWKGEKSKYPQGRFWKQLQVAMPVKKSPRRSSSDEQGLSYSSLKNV

T2: recombinant mouse IL1RAP protein (Sino Biological, Cat #52657-M08H) (mouse, UniProt Q61730 21-359)
T2 construct: Bought protein
T2 sequence (looked up): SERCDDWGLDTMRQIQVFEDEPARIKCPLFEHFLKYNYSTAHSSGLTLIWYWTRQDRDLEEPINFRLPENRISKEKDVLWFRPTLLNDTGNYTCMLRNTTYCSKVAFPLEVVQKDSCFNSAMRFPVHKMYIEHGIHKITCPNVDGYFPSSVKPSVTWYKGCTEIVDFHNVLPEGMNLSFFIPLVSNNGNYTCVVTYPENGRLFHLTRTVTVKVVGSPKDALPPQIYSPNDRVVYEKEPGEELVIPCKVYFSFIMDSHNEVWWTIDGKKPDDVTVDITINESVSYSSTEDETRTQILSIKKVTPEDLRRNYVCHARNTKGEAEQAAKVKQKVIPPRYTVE

T3: cyIL1RAP-His (Lake Pharma) (cynomolgus monkey, UniProt A0A2K5X5J5 21-367)
T3 construct: Bought protein (Lake Pharma, lot 16205819371); also called cynomolgus IL1RAP; monkey IL1RAP; not shown: His tag
T3 sequence: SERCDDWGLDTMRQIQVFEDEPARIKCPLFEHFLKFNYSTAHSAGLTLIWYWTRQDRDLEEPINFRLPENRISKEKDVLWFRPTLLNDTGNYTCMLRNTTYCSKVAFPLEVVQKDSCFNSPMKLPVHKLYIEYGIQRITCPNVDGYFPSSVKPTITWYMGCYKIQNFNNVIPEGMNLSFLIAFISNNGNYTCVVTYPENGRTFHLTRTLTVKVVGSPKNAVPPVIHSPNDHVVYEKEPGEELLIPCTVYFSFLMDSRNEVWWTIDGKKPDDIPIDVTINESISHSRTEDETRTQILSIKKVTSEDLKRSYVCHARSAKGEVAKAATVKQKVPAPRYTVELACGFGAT

T4: recombinant human IL1RAP protein, extracellular domain His-tagged (Sino Biological, Cat #10121-H08H) (human, UniProt Q9NPH3 21-367)
T4 construct: extracellular domain; Bought protein; The Octet analyte is printed as huIL1RAP-His (Sino Biological, lot MB08MA1301) without a catalogue number; also called huIL1RAP-His; hIL1RAP; not shown: His tag
T4 sequence (looked up): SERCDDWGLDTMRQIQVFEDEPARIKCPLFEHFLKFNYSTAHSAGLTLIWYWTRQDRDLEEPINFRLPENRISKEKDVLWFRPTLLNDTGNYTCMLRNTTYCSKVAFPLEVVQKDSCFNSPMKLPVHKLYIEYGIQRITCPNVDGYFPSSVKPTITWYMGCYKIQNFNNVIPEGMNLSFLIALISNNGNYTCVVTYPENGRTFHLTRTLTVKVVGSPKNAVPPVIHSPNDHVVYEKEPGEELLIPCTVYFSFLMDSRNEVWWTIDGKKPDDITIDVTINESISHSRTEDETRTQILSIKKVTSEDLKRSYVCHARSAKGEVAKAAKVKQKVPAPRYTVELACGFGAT


Legend:
[1] = molecular target: T1, IL1RAP on HEK-Blue IL1β / HEK-Blue IL33 …; test: cell-based or functional assay
[2] = molecular target: T1, IL1RAP on HEK-Blue IL1β / HEK-Blue IL33 …; test: cell-based or functional assay; remark: listed apart in the source
[3] = molecular target: T2, recombinant mouse IL1RAP protein (Sino …); test: cell-free ELISA, mouse IL1RAP coated; data not shown
Experimental: Recombinant human or mouse IL1RAP proteins (Sino Biological, Beijing, China; Cat #10121-H08H and Sino Biological, Cat #52657-M08H respectively) were diluted in PBS, pH 7.4 at concentration of 1 μg/ml, coated on high-binding 384-well clear plates and incubated overnight at 4° C. Following, plates were washed 3× with 0.05% Tween-20 in PBS, pH 7.5 and then blocked with 1% BSA in PBS for 1 hour at room temperature. After 3× washes, wells were incubated with each antibody at the highest concentration of 100 nM followed by seven serial half log dilutions (in 1% BSA and 0.05% Tween-20 in PBS) for 1 hour at room temperature. Plates were then washed 3× and incubated with […] detection antibody (Medna, TX, USA; Cat #D8212, 0.5 μg/ml diluted in 0.02% Tween-20 in PBS). After 5× washes, Supersignal ELISA Pico substrate (Thermofisher, MA, USA; Cat #37069) was applied to wells and chemiluminescent signal was read on Sprectramax L for 200 ms/well. Similarly, detection with specific κ and λ antibodies was conducted to define light chain isotyping.

[4] = molecular target: T3, cyIL1RAP-His (Lake Pharma); test: Octet BLI; mAb captured on anti-mouse IgG Fc sensor; cyIL1RAP-His analyte
Experimental: (§1) Antibodies were diluted in kinetics buffer (0.1% BSA, 0.02% Tween-20 and 0.05% NaN₃ in PBS) and loaded onto 16 channel anti-mouse IgG Fc capture sensors (AMC, Cat #2001073; Sartorius, Göttingen, Germany). Human, huIL1RAP-His (Sino Biological, lot: MB08MA1301), and monkey, cyIL1RAP-His (Lake Pharma, NY, USA; lot:16205819371) proteins were titrated starting from the highest concentration of 100 nM and followed by 50 nM and 25 nM. Purified antibodies were loaded at 5 μg/ml in kinetics buffer. The experimental parameters selected to determine the kinetic constants were Baseline for 60 s, Loading of antibody to sensor for 180 s, Association of analyte to antibody for 120 s, Dissociation for 1200 s and Regeneration in 10 mM Glycine pH 1.7 for 4×30 s.
(§2) Regeneration cycle tracking was selected for 12 cycles. Binding to human and cynomolgus IL1RAP was measured and KD (M) kinetics were calculated. Also, the disassociation rate (Kdis) (1/s) and association rate (Kon) (1/Ms) kinetics were calculated (data not shown).

[5] = molecular target: T4, recombinant human IL1RAP protein, …; test: Octet BLI; mAb captured on anti-mouse IgG Fc sensor; huIL1RAP-His analyte
Experimental: as §1, §2

Binder	IC50, HEK-BlueIL1β NFκB Reporter Assay [1]	Max % Inhibition at 200 nM, HEK-BlueIL1β NFκB Reporter Assay [1] [%]	IC50, HEK-BlueIL33 NFκB Reporter Assay [2]	Max % Inhibition at 200 nM, HEK-BlueIL33 NFκB Reporter Assay [2] [%]	binding result [3]	Kd [4] [nM]	Response [4]	koff [4] [s⁻¹]	kon [4] [M⁻¹ s⁻¹]	Kd [5] [nM]	Response [5]	koff [5] [s⁻¹]	kon [5] [M⁻¹ s⁻¹]
STLX2025 (antibody, V domains shown, Purified from hybridoma of immunized Alivamab mice; intact IgG; captured on anti-mouse IgG Fc sensors in Octet; kappa light chain; also called 74804_25H09A) VH: QVQLVQSGAEVKKPGSSVKVSCKASGDTFSNYAITWVRQAPGQGLEWIVGFSPIFGTANYAQKFQGRVTITADKSTSTAYMELSSLISEDTAVYYCAWGSGNFNWFDPWGQGTLVTVSS VL: AIRMTQSPSSFSASTGDRVTITCRASQGISSYLAWYQQKPGKAPKLLIYAASTLQSGVPSRFSGSGSGTDFTLTISSLQSEDFATYYCQQYYSYPLTFGGGTKVEIK	1.77e-09 M (implied; unit not printed)	100	6.55e-09 M (implied; unit not printed)	73	no binding (tested: 100 nM)	2.09	0.263	0.000297	142000	2.18	0.26	0.000337	154000
STLX2001E (antibody, V domains shown, Purified from hybridoma of immunized Alivamab mice; intact IgG by SEC and SDS-PAGE; captured on anti-mouse IgG Fc sensors in Octet; kappa light chain; also called 74804_01E23A) VH: QVQLVQSGAEVKKPGASVKVSCKASGYTFTGYYMHWVRQAPGQGLEWMGWLNPNSGGTDYVQKFQGRVTMTRDTSISTAYMELSRLRSDDTAVYYCARTLYYYGMDVWGQGTTVTVSS VL: not shown	7.37e-10 M (implied; unit not printed)	98	2.49e-09 M (implied; unit not printed)	80	no binding (tested: 100 nM)	4.54	0.265	0.000863	190000	2.34	0.308	0.000391	167000
STLX2029 (antibody, V domains shown, Purified from hybridoma of immunized Alivamab mice; intact IgG; captured on anti-mouse IgG Fc sensors in Octet; kappa light chain; also called 74804_29D13A) VH: QVQLLQSGAEVKKPGSSVKVSCKASGGTFSIYAIDWVRQAPGQGLEWMGGIIPIFGTANSAQKFQGRVTITADKSTSTAYMELSSLRSEDTAVYYCARNGATSDAFDMWGQGTMVTVSS VL: EIVLTQSPGTLSLSPGERATLSCRASLSVSSNYLAWFQQRPGQAPRLLIYGVSRRATGIPDRFSGSGSGTDFTLTISRLEPEDFAVYYCQQYGSSPLTFGGGTKVEIK	1.85e-09 M (implied; unit not printed)	99	8.75e-09 M (implied; unit not printed)	86	no binding (tested: 100 nM)	1.97	0.327	0.00065	330000	1.07	0.291	0.000361	336000
STLX2007 (antibody, V domains shown, Purified from hybridoma of immunized Alivamab mice; intact IgG; captured on anti-mouse IgG Fc sensors in Octet; kappa light chain; also called 74804_07K10A) VH: QVQLLQSGAEVKKPGSSVKVSCRASGGTFSIYAIDWVRQAPGQGLEWMGGIIPISGTENSAQNFQDRITITADKSTNTAYMELSSLRSEDTAVYYCARNGATSDAFDIWGQGTMVTVSS VL: EIVLTQSPGTLSLSPGERATLSCRASLSVSSNYLAWFQQRPGQAPRLLIYGVSRRATGIPDRFSGSGSGTDFTLTISRLEPEDFAVYYCQQYGSSPLTFGGGTKVEIK	3.19e-09 M (implied; unit not printed)	100	6.62e-09 M (implied; unit not printed)	79	no binding (tested: 100 nM)	0.751	0.273	0.000283	377000	0.596	0.247	0.000234	392000
STLX2051 (antibody, V domains shown, Purified from hybridoma of immunized Alivamab mice; intact IgG; captured on anti-mouse IgG Fc sensors in Octet; kappa light chain; also called 74804_51C10A) VH: QVQLLQSGAEVKKPGSSVKVSCKASGGTFNIYAIDWVRQAPGQGLEWMGGIIPIFGTANSAQKFQGRVTITADKSTNTAYMELSSLRSEDTAVYYCARNGATSDAFDIWGQGTMVTVSS VL: EIVLTQSPGTLSLSPGERATLSCRASQSVSSNYLAWFQQRPGQAPRLLIYGVSRRATGIPDRFSGSGSGTDFTLTISRLEPEDFAVYYCQQYGSSPLTFGGGTKVEIK	2.5e-09 M (implied; unit not printed)	99	1.3e-08 M (implied; unit not printed)	77	no binding (tested: 100 nM)	1.41	0.265	0.000459	326000	0.875	0.237	0.000301	344000
